This data set in a line: protein stability index of a GFP-peptide fusion (GPS, HEK-293T) (PSI 1-6); higher = more stable. The settings on record: c terminus: a fixed tail appended.

± gives the standard deviation.
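Further: 24-mer peptide tiles fused after GFP, lentivirally expressed, FACS-sorted into six equal bins by GFP/DsRed ratio, decoded by Illumina sequencing, PSI is the read-weighted mean bin number.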

In the case of MSSVQQQPPPPRRVTNVGSLLLTP [WASL], the protein stability index by setting is: (treatment: DMSO) 3.7 ± 0.28; (treatment: MLN4924 1 uM, 8 h) 3.75 ± 0.3.
Turning to EDGMQCLQLKETLATQEPTDNQVR [DLC1], the protein stability index was 5.35 ± 0.13 (treatment: DMSO) and 5.5 ± 0.092 (treatment: MLN4924 1 uM, 8 h).
For the sequence CMFCLYSFMPLVIKVTSATSVNLG [SLC35F2], the protein stability index (treatment: DMSO) came to 2.91 ± 0.72 and the protein stability index (treatment: MLN4924 1 uM, 8 h) turned out to be 2.73 ± 0.41.
Regarding KKQAGRPKGSKGKEKDSPFKPKLY [RBBP5], the protein stability index reads like this: (treatment: DMSO) 3.74 ± 0.26; (treatment: MLN4924 1 uM, 8 h) 3.91 ± 0.28.
Take ALSEQKAQDLGELLATAEQEQLSL [LRRC45]: the protein stability index by setting is: (treatment: DMSO) 5.07 ± 0.36; (treatment: MLN4924 1 uM, 8 h) 5.27 ± 0.1.
On to VKSRGKRLALEKVPKVGQRFNRIG [PI4K2A], for which the protein stability index (treatment: DMSO) was 3.23 ± 0.49 and the protein stability index (treatment: MLN4924 1 uM, 8 h) came out at 3.46 ± 0.21.
The like results for FFSEIISSVSDVKFSHSGRYMLTR [PPP2R2C] were, in that order, 2.08 ± 0.48 and 2.06 ± 0.22.
Regarding LGWNSTERSLRLQARYHDTPYKPP [MYORG], the protein stability index runs as follows: (treatment: DMSO) 2.88 ± 0.3; (treatment: MLN4924 1 uM, 8 h) 3.2 ± 0.22.
With SHSCYHDTRSGFWYVCRTQGVEGD [TRIM35], the protein stability index runs as follows: (treatment: DMSO) 2.52 ± 0.27; (treatment: MLN4924 1 uM, 8 h) 2.36 ± 0.29.
On to EHKSLESLADGGSASPIKDQPVMA [FANCE], for which the protein stability index reads like this: (treatment: DMSO) 5.43 ± 0.27; (treatment: MLN4924 1 uM, 8 h) 5.32 ± 0.2.
Take APYFERSSSKRYTMSRSLDGASVN [EPB41L3]: the protein stability index runs as follows: (treatment: DMSO) 3.3 ± 0.33; (treatment: MLN4924 1 uM, 8 h) 3.44 ± 0.7.
Consider AQAHRIHIDPEIQDGSPTTSRRPS [PDLIM4], for which the protein stability index runs as follows: (treatment: DMSO) 5.31 ± 0.43; (treatment: MLN4924 1 uM, 8 h) 5.34 ± 0.22.
Take DAALLEMENNHTVAITILQDDHDH [MTUS2]: the protein stability index is 4.98 ± 0.21 (treatment: DMSO) and 4.92 ± 0.065 (treatment: MLN4924 1 uM, 8 h).
The sequence PQEFQKTVSTMYYLWMCSTLALLL [SCAMP3] came in with a protein stability index (treatment: DMSO) of 2.88 ± 0.47 and a protein stability index (treatment: MLN4924 1 uM, 8 h) of 2.77 ± 0.67.
Take RDNPMCLKCDLQERLLCPSLLAGT [M1AP]: the protein stability index stood at 2.28 ± 0.14 (treatment: DMSO) and 2.16 ± 0.23 (treatment: MLN4924 1 uM, 8 h).
The like results for EECKDRERPMYGRDSAYQSITHYR [EMD] were, in that order, 4.18 ± 0.43 and 4.13 ± 0.14.
With FSHEILRDEESFFGERRIPRGRRI [ALKBH7], the protein stability index is, setting by setting: (treatment: DMSO) 3.34 ± 0.4; (treatment: MLN4924 1 uM, 8 h) 3.84 ± 0.4.
Turning to VNIEWHRFRFGQDQLLLATGLNNG [WSB1], the protein stability index runs as follows: (treatment: DMSO) 2.76 ± 0.41; (treatment: MLN4924 1 uM, 8 h) 2.58 ± 0.45.
For the sequence FTFLRPLSVQQPTALALEPDAIRS [PCDHGC5], the protein stability index is, setting by setting: (treatment: DMSO) 2.89 ± 0.3; (treatment: MLN4924 1 uM, 8 h) 3.03 ± 0.31.
Consider GVIAAIVQLHNGTKYKKFPHWLDK [STEAP1], for which the protein stability index was found to be 2.6 ± 0.31 (treatment: DMSO) and 2.39 ± 0.63 (treatment: MLN4924 1 uM, 8 h).
The like results for EAKNYLLLPQERPLMQGPRTRPRK [KLHL20] were, in that order, 4.25 ± 0.097 and 4.17 ± 0.058.
As for VQDKTPLYSQLLQAYKWSNKLQYH [MED27], the protein stability index (treatment: DMSO) is 2.18 ± 0.27 and the protein stability index (treatment: MLN4924 1 uM, 8 h) stood at 2.19 ± 0.25.
The like results for KVYPVQEALAVLEPYARLPPHKHV [TRIB3] were, in that order, 3.02 ± 0.26 and 3.09 ± 0.15.
The sequence RTMAPEKLLKSMPILQGQIDALLE [SNAP91] returned a protein stability index (treatment: DMSO) of 2.83 ± 0.16 and a protein stability index (treatment: MLN4924 1 uM, 8 h) of 2.89 ± 0.27.
On to RLFPYSQYYRWLNYGGVIKNYFQH [PRIM1], for which the protein stability index came to 2.15 ± 0.75 (treatment: DMSO) and 2.22 ± 0.52 (treatment: MLN4924 1 uM, 8 h).
With YENFLEDKALMIAMEYAPGGTLAE [NEK8], the protein stability index (treatment: DMSO) was determined as 3.54 ± 0.13 and the protein stability index (treatment: MLN4924 1 uM, 8 h) turned out to be 3.98 ± 0.2.
With LSEDYNKMTPVKNYQAHQSRVTMI [WDFY2], the protein stability index reads like this: (treatment: DMSO) 2.71 ± 0.12; (treatment: MLN4924 1 uM, 8 h) 2.83 ± 0.13.
In the case of GEPGAAAPAMYDDESAIDFSAYID [CEBPD], the protein stability index by setting is: (treatment: DMSO) 5.28 ± 0.21; (treatment: MLN4924 1 uM, 8 h) 5.08 ± 0.29.
With VERAAAAAAAAAGGDAGHAPFPPP [C6orf223], the protein stability index reads like this: (treatment: DMSO) 5.08 ± 0.65; (treatment: MLN4924 1 uM, 8 h) 5.22 ± 0.4.
In the case of LPQEHSQIYHCTKRKEEECSTTDH [TBX5], the protein stability index is, setting by setting: (treatment: DMSO) 5.39 ± 0.21; (treatment: MLN4924 1 uM, 8 h) 5.49 ± 0.11.
With SSGKLICSRTTGYQILTLEKDQEQ [GMCL1], the protein stability index is, setting by setting: (treatment: DMSO) 3.94 ± 0.46; (treatment: MLN4924 1 uM, 8 h) 4.37 ± 0.28.
With LLDALSPEQLVLTLLEAEPPHVLI [ESR2], the protein stability index runs as follows: (treatment: DMSO) 2.55 ± 0.57; (treatment: MLN4924 1 uM, 8 h) 2.08 ± 0.18.
With RKDLAKLHREVRSTPLTATPGGRG [VTI1B], the protein stability index by setting is: (treatment: DMSO) 4.38 ± 0.17; (treatment: MLN4924 1 uM, 8 h) 4.45 ± 0.17.
As to LTASTMEILLDFVYTETVHVTVEN [KLHL12], the protein stability index turned out to be 2.9 ± 0.79 (treatment: DMSO) and 3.29 ± 1.4 (treatment: MLN4924 1 uM, 8 h).
With MHKHNETSQKIAARAFAQRYLADL [RSPH3], the protein stability index runs as follows: (treatment: DMSO) 2.63 ± 0.094; (treatment: MLN4924 1 uM, 8 h) 2.84 ± 0.22.
In the case of RLSSRYRYGQLIEINSHSLFSKWF [TRIP13], the protein stability index (treatment: DMSO) was 2.12 ± 0.28 and the protein stability index (treatment: MLN4924 1 uM, 8 h) was determined as 2.04 ± 0.38.

The record behind these values is the supplement of paper PMC10567573.
